# Experimental data: patent US9789213B2, “EGFL7 targeting and/or binding polypeptides and methods for inhibiting angiogenesis” (LONDON HEALTH SCIENCES CENTRE RESEARCH INC., priority 2012, dated 2017)
# Where no end group is shown, it is not given here. The star is where a group is joined. FITC = O=C1OC2(c3ccc(O)cc3Oc3cc(O)ccc32)c2ccc(NC(=S)*)cc21
# Biological target: T1, recombinant GST-EGFL7 protein (Homo sapiens, UniProt Q9UHF1)
# T1 construct: Magnetic nanobeads are then coated with full-length recombinant EGFL7; made in house; host or cells: Spodoptera frugiperda Sf21 (baculovirus)
# T1 sequence (Q9UHF1 24-273): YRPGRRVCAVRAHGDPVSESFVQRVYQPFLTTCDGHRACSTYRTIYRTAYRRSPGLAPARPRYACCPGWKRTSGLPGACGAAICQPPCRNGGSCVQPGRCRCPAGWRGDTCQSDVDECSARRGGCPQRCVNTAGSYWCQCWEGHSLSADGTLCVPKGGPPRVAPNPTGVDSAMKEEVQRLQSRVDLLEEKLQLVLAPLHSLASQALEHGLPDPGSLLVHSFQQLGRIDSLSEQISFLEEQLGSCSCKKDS
# Assay: OBOC peptide library screen ('beads on a bead') with secondary cell-based screen
# Format: binding
# Details: hit beads from magnetic-bead screen and secondary cell-based screen
# Description: The present invention also encompasses methods of screening polypeptides to identify those that interact with EGFL7 and modulate and EGFL7 activity and/or function. In a specific aspect, a combinatorial peptide library is screened using a “beads on a bead” approach, as set out in FIG. 1 and described in Cho et al., which is incorporated herein by reference in its entirety. […] Magnetic nanobeads are then coated with full-length recombinant EGFL7, are mixed with the peptide library, and the most highly interacting library bead “hits” are sorted using large format flow cytometry. An on-bead cell binding assay can then be used to validate the peptide hits using human endothelial cells. Validated hit peptides are then sequenced using an in-house MALDI-TOF/MS technique, and their binding affinity to EGFL7 is quantified using surface plasmon resonance (SPR) (Amadei et al. 2009, J. Mass Spectrometry, 45:241-51; U.S. Pat. Nos. 5,510,240; and 7,262,269, each of which is incorporated by reference herein in its entirety).
# All fractions containing EGFL7 recombinant protein were pooled together. 30 μg of anti-GST antibody was mixed into the protein solution, and incubated with 370 mg of MagnaBind Protein A/G magnetic beads (Thermo Scientific) for 15 minutes at 4° C. After several washing with wash buffer, the proteins were released from the magnetic beads by boiling in SDS loading buffer, and analyzed by western blot using anti-EGFL7 polyclonal antibody (R&D Systems).
# The OBOC peptide library beads were washed extensively using 70% ethanol, distilled water and binding buffer (50 mM Na2HPO4, 150 mM NaCl, 2 mM CaCl2, 0.5M L-Arginine, pH 7.4) before screening. The magnetic beads were mixed with the library beads in a glass vial, and incubated at 37° C. for 1 hour, A strong magnet was placed at the side of the vial, and the library was screened as described in Cho et al. Positive hits were pooled and washed extensively with ethanol and water. A secondary cell-based screen was performed using EGFL7-positive HT1080 fibrosarcoma cells expressing tdTomato, and EGFL7-negative MDA435 breast cancer cells expressing GFP as described in Cho et al. Hit beads were collected and peptides were sequenced on-bead using MALDI TOF MS/MS as described in Cho et al.
# Recombinant EGFL7 protein was purified (FIGS. 2A and 2B) and conjugated onto magnetic beads. Western blot analysis was performed to show successful conjugation of purified EGFL7 onto magnetic beads using a polyclonal anti-EGFL7 antibody (FIG. 2C). EGFL7-conjugated magnetic beads were then mixed with a OBOC combinatorial peptide library, and positive hits were isolated using a strong neodynium magnet. […] Beads were examined under an inverted fluorescence microscope, and hit beads that strongly associated with red cells, but had little or no interaction with green cells were isolated manually.
row,affinity for EGFL7 in OBOC peptide library screening,Substance
1,high affinity,AYYEEAYE (EGFL7 interacting peptide)
2,high affinity,DPYDHEFR (EGFL7 interacting peptide)
3,high affinity,EWELHAEE (EGFL7 interacting peptide)
4,high affinity,RYQLHHPR (EGFL7 interacting peptide)
5,high affinity,RYVDHEDW (EGFL7 interacting peptide)
6,high affinity,SQSSMYPS (EGFL7 interacting peptide)
7,high affinity,WYKLHPTM (EGFL7 interacting peptide)

# Tested on: HUVECs
# Assay: Cell uptake of FITC-labelled peptide by HUVECs with or without EGFL7 siRNA knockdown, flow cytometry
# Format: cell-based, human
# Details: HUVECs treated with negative siRNA or EGFL7 siRNA; 1 mM, 1 hour at 4° C.
# Method: EGFL7 knockdown in human umbilical vein endothelial cells (HUVECs) was achieved using a siRNA targeting the exon 5 of the protein and INTERFERin transfection reagent (HUVECs-si). Wildtype HUVECs and HUVECs-si cells were seeded onto separate wells in a 6-well tissue culture plate to approximately 80% confluency. The cells were incubated overnight in DMEM containing 10% fetal bovine serum and Pen/Strep at 37° C. with 5% CO2. The media in each well were removed and replaced with pre-chilled PBS. FITC-E7-p72 (FITC-HMYFLLGH; SEQ ID NO: 20) was added onto cells to a final concentration of 1 mM and incubated for 1 hour at 4° C. Cells were detached from the well with EDTA, washed three times with PBS, and fixed with 4% formaldehyde. The uptake of FITC-labeled peptides was analyzed by flow cytometry.
row,Substance,uptake of fluorescein-labelled peptide
1,{FITC}-HMYFLLGH [FITC-E7-p72],dependent on EGFL7 expression
